Changes are numbered by the printed parent chain. Blank lines part the entries; values can stand above or below the compound they belong to. Where a SMILES comes first, the peptide text is derived from it. Where no end group is shown, it is not given here. The star is where a group is joined. X1 = CC1N=c2c(cc3c(c2S(=O)(=O)O)Oc2c(cc4c(c2S(=O)(=O)O)NC(C)C4(C)C)C=3c2ccc(C(=O)*)cc2)C1(C)C
How the values were obtained:
[1] = target: Alexa-532-TNYL-RAW peptide; experiment: fluorescence polarization
[2] = target: Alexa-532-TNYL-RAW peptide; experiment: fluorescence polarization, EphB4 titrated into 75 nM Alexa-532-TNYL-RAW
[3] = target: T1, human EphB4 ephrin-binding domain, EphB4 (wt), EphB4 (17-196) (Homo sapiens, UniProt P54760); experiment: Isothermal titration calorimetry (ITC), wild-type EphB4; conditions: Table 5, receptor EphB4 (wt)
T1 sequence (P54760 17-196): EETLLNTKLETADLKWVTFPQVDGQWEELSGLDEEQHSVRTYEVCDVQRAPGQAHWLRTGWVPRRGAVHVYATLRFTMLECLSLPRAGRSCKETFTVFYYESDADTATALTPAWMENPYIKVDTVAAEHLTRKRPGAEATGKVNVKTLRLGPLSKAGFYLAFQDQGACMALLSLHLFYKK
Method: All mutants and ligands were dialyzed into buffer containing 50 mM Tris-Cl (pH 7.8), 150 mM NaCl, and 1 mM CaCl2 prior to use in isothermal titration calorimetry (ITC) experiments. All experiments were performed with a Microcal MCS ITC at 25° C. […] Data for these titrations were fit assuming a stoichiometry of 1 and at least 60% saturation at the final peptide concentration as described (19,34).
Peptides were dissolved into the same buffer used for the dialysis of EphB4. […] ITC experiments were performed with a Microcal MCS ITC at 25° C. Following an initial injection of 2 μl, titrations were performed by making 20 13 μl injections of peptide into EphB4 in the sample cell to produce an approximate final 2:1 ratio of injectant to sample in the cell. […] Prior to loading the sample cell, EphB4 was centrifuged at 18,000 g for 5 min at 4° C. to remove aggregates and degassed for 5 minutes at room temperature. […] Dilution data were fit to a line and subtracted from the corresponding titration data.

[4] = target: human EphB4 (17-196) L95R mutant (human); experiment: ITC, 25 °C
[5] = target: human EphB4 (17-196) K149Q mutant (human); experiment: ITC, 25 °C
[6] = target: human EphB4 (17-196) ligand binding domain, wild type (human); experiment: ITC, 25 °C
[7] = target: human EphB4 (17-196) L95R mutant (human); experiment: ITC, 25 °C, 50 mM Tris pH 7.8, 150 mM NaCl, 1 mM CaCl2
[8] = target: human EphB4 (17-196) K149Q mutant (human); experiment: as above
[9] = target: human EphB4 (17-196) ligand binding domain, wild type (human); experiment: as above
[10] = target: human EphB4 (17-196) K149Q mutant (human); experiment: ITC in phosphate buffer
[11] = target: human EphB4 (17-196) L95R mutant (human); experiment: ITC
[12] = target: human EphB4 (17-196) K149Q mutant (human); experiment: ITC
[13] = target: human EphB4 (17-196) ligand binding domain, wild type (human); experiment: FP competition, unlabeled TNYL-RAW against Alexa-532-TNYL-RAW on wtEphB4 (FIG. 7)
[14] = target: human EphB4 (17-196) K149Q mutant (human); experiment: FP competition, unlabeled TNYL-RAW against Alexa-532-TNYL-RAW on EphB4 K149Q (FIG. 7)
[15] = target: human EphB4 (17-196) L95R mutant (human); experiment: ITC, 25 °C, 2 mM TNYL-RAW in the syringe, 15 µM EphB4 (L95R) in the cell; fit assuming stoichiometry of 1
[16] = target: T2, EphB4 K149Q (Homo sapiens, UniProt P54760, K149Q); experiment: Fluorescence polarization binding of Alexa-532-TNYL-RAW, EphB4 K149Q; conditions: FP; EphB4 mutant Lys149Gln
T2 construct: GP64 signal peptide (N, cleaved yes); made in house; host or cells: Hi5 insect cells (baculovirus, secreted)
T2 sequence (P54760 17-196 K149Q): T1 sequence (P54760 17-196) with K133Q
Method: (§1) This Example illustrates fluorescence polarization (FP) assays using a fluorescently-labeled reporter peptide to measure binding of various ligands to the EphB4-LBD.
(§2) All experimental data were analyzed using Prism 4.0 software (GraphPad Software Inc., San Diego, Calif.) and Kd values were generated by fitting the experimental data using a one-site binding hyperbola nonlinear regression model or equation 8.10 (.www.invitrogen.com/downloads/FP8.pdf).
(§3) The construct was sequence verified, and baculovirus was generated with homologous recombination into Sapphire Baculovirus DNA (Orbigen, San Diego, Calif.) following the manufacturer's protocol (10). The wtEphB4 construct was used as a template for generation of site specific mutants.

[17] = target: T3, EphB4 L95R (Homo sapiens, UniProt P54760, L95R); experiment: Fluorescence polarization binding of Alexa-532-TNYL-RAW, EphB4 L95R; conditions: EphB4 Leu95Arg mutant
T3 construct: GP64 signal peptide (N, cleaved yes); made in house; host or cells: Hi5 insect cells (baculovirus, secreted)
T3 sequence (P54760 17-196 L95R): T1 sequence (P54760 17-196) with L79R
Method: as §1, §2, §3

[18] = target: T4, EphB4 A186S (Homo sapiens, UniProt P54760, A186S); experiment: Fluorescence polarization binding of Alexa-532-TNYL-RAW, EphB4 A186S; conditions: FP; EphB4 mutant Ala186Ser
T4 construct: GP64 signal peptide (N, cleaved yes); made in house; host or cells: Hi5 insect cells (baculovirus, secreted)
T4 sequence (P54760 17-196 A186S): T1 sequence (P54760 17-196) with A170S
Method: as §1, §2, §3

[19] = target: T5, EphB4 T147F (Homo sapiens, UniProt P54760, T147F); experiment: Fluorescence polarization binding of Alexa-532-TNYL-RAW, EphB4 T147F; conditions: FP; EphB4 mutant Thr147Phe
T5 construct: GP64 signal peptide (N, cleaved yes); made in house; host or cells: Hi5 insect cells (baculovirus, secreted)
T5 sequence (P54760 17-196 T147F): T1 sequence (P54760 17-196) with T131F
Method: as §1, §2, §3

Compound: human EphB4 (17-196) K149Q mutant (receptor)
assay window [1]: 12 fold
Kd [2]: 23 nM

Compound: human EphB4 (17-196) RKR148-150SQV mutant (receptor)
Kd [2]: 21 nM

Compound: CC[C@H](C)[C@H](NC(=O)[C@@H]1CCCN1C(=O)CNC(=O)[C@H](CC(N)=O)NC(=O)[C@@H]1CCCN1C(=O)[C@H](CO)NC(=O)[C@H](Cc1ccccc1)NC(=O)[C@H](CC(C)C)NC(=O)[C@H](Cc1ccc(O)cc1)NC(=O)[C@H](CC(N)=O)NC(=O)[C@@H](N)[C@@H](C)O)C(=O)N[C@@H](C)C(=O)O [TNYL]
ΔH [3]: −9.6 ± 0.3 koal mol−1

Compound: human EphB4 (17-196) ligand binding domain, wild type (receptor)
assay window [1]: 6 fold
Kd [2]: 5 nM

Compound: human ephrinB2 (extracellular domain; residues 25-187) (ligand)
Kd [4]: 1900 nM
TΔS [4]: 13 kcal/mol
ΔG [4]: -7.8 kcal/mol
ΔH [4]: 5.2 kcal/mol
Kd [5]: 20 nM
TΔS [5]: 14.1 kcal/mol
ΔG [5]: -10.5 kcal/mol
ΔH [5]: 3.6 kcal/mol
Kd [6]: 40 nM
TΔS [6]: 13.4 kcal/mol
ΔG [6]: -10.2 kcal/mol
ΔH [6]: 3.3 kcal/mol
Kd [7]: 1900 nM
TΔS [7]: 13 kcal/mol
ΔG [7]: -7.8 kcal/mol
ΔH [7]: 5.2 kcal/mol
Kd [8]: 20 nM
TΔS [8]: 14.4 kcal/mol
ΔG [8]: -10.6 kcal/mol
ΔH [8]: 3.7 kcal/mol
Kd [9]: 40 nM
TΔS [9]: 13.4 kcal/mol
ΔG [9]: -10.2 kcal/mol
ΔH [9]: 3.3 kcal/mol
ΔHobs [10]: 3.9 kcal/mol

Compound: LASPNGPIARAW [LFSP-RAW(F to A)]
ΔH [3]: −7.9 ± 0.9 koal mol−1

Compound: human EphB4 (17-196) A186S mutant (receptor)
Kd [2]: 16 nM

Compound: CC[C@H](C)[C@H](NC(=O)[C@@H]1CCCN1C(=O)CNC(=O)[C@H](CC(N)=O)NC(=O)[C@@H]1CCCN1C(=O)[C@H](CO)NC(=O)[C@H](Cc1ccccc1)NC(=O)[C@H](CC(C)C)NC(=O)[C@H](Cc1ccc(O)cc1)NC(=O)[C@H](CC(N)=O)NC(=O)[C@@H](NC(=O)c1ccc(C2=c3cc4c(c(S(=O)(=O)O)c3Oc3c2cc2c(c3S(=O)(=O)O)NC(C)C2(C)C)=NC(C)C4(C)C)cc1)[C@@H](C)O)C(=O)N[C@@H](C)C(=O)N[C@@H](CCCNC(=N)N)C(=O)N[C@@H](C)C(=O)N[C@@H](Cc1c[nH]c2ccccc12)C(=O)O (stereo partly shown) [Alexa-532-TNYL-RAW] (X1-TNYLFSPNGPIARAW-OH; N-terminus and C-terminus assumed)
reduction in binding affinity versus wild type [16]: 4-5 fold
binding of the peptide in FP assay [17]: did not exhibit significant binding
reduction in binding affinity versus wild type [18]: 4-5 fold
reduction in binding affinity versus wild type [19]: 4-5 fold

Now from value to compound:

Kd [2]: 6.1 nM
Compound: human EphB4 (17-196) R150V mutant (receptor)

Kd [2]: 4.5 nM
Compound: human EphB4 (17-196) R148S mutant (receptor)

Kd [2]: 25 nM
Compound: human EphB4 (17-196) T147F mutant (receptor)

fold reduction of affinity against wild-type EphB4 [11]: 500 fold
fold reduction of affinity against wild-type EphB4 [12]: 3 fold
Ki [13]: 100 nM
Kd [5]: 250 nM
TΔS [5]: -2.7 kcal/mol
ΔG [5]: -9 kcal/mol
ΔH [5]: -11.7 kcal/mol
Kd [6]: 71 nM
TΔS [6]: -4.9 kcal/mol
ΔG [6]: -9.8 kcal/mol
ΔH [6]: -14.7 kcal/mol
Kd [8]: 160 nM
TΔS [8]: -3.2 kcal/mol
ΔG [8]: -9.4 kcal/mol
ΔH [8]: -12.5 kcal/mol
Kd [9]: 71 nM
TΔS [9]: -4.9 kcal/mol
ΔG [9]: -9.8 kcal/mol
ΔH [9]: -14.7 kcal/mol
Ki [14]: 170 nM
Kd [15]: 35900 nM
TΔS [15]: -5.8 kcal/mol
ΔG [15]: -6.1 kcal/mol
ΔH [15]: -12 kcal/mol
Compound: TNYL-RAW peptide
